# Laboratory results taken from paper PMC5352868, “Physicochemical and Biological Characterization of the Proposed Biosimilar Tocilizumab” (BioMed Research International, 2017).
# B1: HS628 (proposed biosimilar tocilizumab) (antibody, V domains shown)
# VH: EVQLQESGPGLVRPSQTLSLTCTVSGYSITSDHAWSWVRQPPGRGLEWIGYISYSGITTYNPSLKSRVTMLRDTSKNQFSLRLSSVTAADTAVYYCARSLARTTAMDYWGQGSLVTVSS
# VL: DIQMTQSPSSLSASVGDRVTITCRASQDISSYLNWYQQKPGKAPKLLTYYTSRLHSGVPSRFSGSGSGTDFTFTISSLQPEDIATYYCQQGNTLPYTFGQGTKVEIK
# notes: found identical to the heavy chain of m1; found identical to the light chain of m1; IgG1; Four batches tested (20130901-20130904); source: Zhejiang Hisun Pharmaceutical; copies: 2 + 2
# B2: Originator tocilizumab (Actemra) (antibody, V domains shown)
# VH: B1 VH
# VL: B1 VL
# notes: Recombinant humanized IgG1; also called originator product; source: bought: Roche Pharma (Schweiz) Ltd. (manufactured by Chugai Pharma Manufacturing Co., Ltd.); copies: 2 + 2
# What was measured:
# [1] = target: T1, soluble interleukin-6 receptor (sIL-6R) (Homo sapiens, UniProt P08887); test: SPR; Biacore X100 plus; anti-Fc antibody immobilised on CM5 chip (~2500 RU) captures the antibody sample (1.0 ug/mL, 10 uL/min, 60 s); IL-6R injected 150 to 4.7 ng/mL, 30 uL/min, 180 s, dissociation 500 s, HBS-EP+ buffer; minimum and maximum of four batches; settings: both partners purified
# T1 construct: human interleukin-6 receptor, soluble form (sIL-6R); In the functional rows the receptor is the IL-6R on DS-1 cells
# [2] = target: T1, soluble interleukin-6 receptor (sIL-6R); test: cell-based or functional assay
# T1 sequence (P08887 20-365): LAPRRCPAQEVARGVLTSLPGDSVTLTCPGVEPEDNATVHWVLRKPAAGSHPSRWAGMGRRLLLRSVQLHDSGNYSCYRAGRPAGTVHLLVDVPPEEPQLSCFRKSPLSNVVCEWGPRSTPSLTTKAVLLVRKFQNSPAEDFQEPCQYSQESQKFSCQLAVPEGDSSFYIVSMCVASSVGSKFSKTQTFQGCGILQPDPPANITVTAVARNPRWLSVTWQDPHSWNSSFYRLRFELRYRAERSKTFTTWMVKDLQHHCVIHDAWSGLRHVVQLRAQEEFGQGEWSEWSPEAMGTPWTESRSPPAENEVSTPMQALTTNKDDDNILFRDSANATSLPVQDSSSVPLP
Binder,Kd [1],"DS-1 cell growth inhibition (CCK-8, 72 hrs, antibody 800 ug/mL to 12.21 ng/mL), relative potency (EC50) towards originator tocilizumab, batch 1 of 4; blocks IL-6 with IL-6R on the cells [2]","DS-1 cell growth inhibition (CCK-8, 72 hrs, antibody 800 ug/mL to 12.21 ng/mL), relative potency (EC50) towards originator tocilizumab, batch 2 of 4; blocks IL-6 with IL-6R on the cells [2]","DS-1 cell growth inhibition (CCK-8, 72 hrs, antibody 800 ug/mL to 12.21 ng/mL), relative potency (EC50) towards originator tocilizumab, batch 3 of 4; blocks IL-6 with IL-6R on the cells [2]","DS-1 cell growth inhibition (CCK-8, 72 hrs, antibody 800 ug/mL to 12.21 ng/mL), relative potency (EC50) towards originator tocilizumab, batch 4 of 4; blocks IL-6 with IL-6R on the cells [2]"
B1,0.92 to 1.17 nM,98 % relative potency,102 % relative potency,94 % relative potency,105 % relative potency
B2,1.08 to 1.78 nM,–,–,–,–
